Experimental findings from the supplement of paper PMC10567573 are described below.

The nature of this data set: protein stability index of a GFP-peptide fusion (GPS, HEK-293T) (PSI 1-6); higher = more stable. Conditions: c terminus: a fixed tail appended.

± gives the standard deviation.
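Also: 24-mer peptide tiles fused after GFP, lentivirally expressed, FACS-sorted into six equal bins by GFP/DsRed ratio, decoded by Illumina sequencing, PSI is the read-weighted mean bin number.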

Consider QKNFNNLYGTKGNYTSRVWEYSSS [TRIM29], for which the protein stability index is 2.31 ± 0.4 (treatment: DMSO) and 2.51 ± 0.12 (treatment: MLN4924 1 uM, 8 h).

As to QKRYHCKECGKVFSQSAGLIQHQR [ZSCAN9], the protein stability index amounted to 3.3 ± 0.35 (treatment: DMSO) and 3.63 ± 0.63 (treatment: MLN4924 1 uM, 8 h).

Turning to QLCDVSIRVQGREFRAHRAVLAAS [ZBTB22], the protein stability index is 2.58 ± 0.35 (treatment: DMSO) and 2.77 ± 0.3 (treatment: MLN4924 1 uM, 8 h).

QLILFGLSNQLAVTFREENTIAFR [MCOLN1] yielded a protein stability index (treatment: DMSO) of 2.65 ± 0.49 and a protein stability index (treatment: MLN4924 1 uM, 8 h) of 2.33 ± 0.64.

QLVLVAAGFDALQGDPKGEMAATP [HDAC6]: the protein stability index by setting is: (treatment: DMSO) 2.75 ± 0.057; (treatment: MLN4924 1 uM, 8 h) 2.8 ± 0.43.

As to QNKAQRQKDLIMKVENLTLKNHFQ [TAF7L], the protein stability index stood at 3.08 ± 0.28 (treatment: DMSO) and 3.1 ± 0.13 (treatment: MLN4924 1 uM, 8 h).

Take QPPPQEEPGTPSSSPDDKLLTSPR [KLHL14]: the protein stability index was found to be 5.52 ± 0.16 (treatment: DMSO) and 5.48 ± 0.15 (treatment: MLN4924 1 uM, 8 h).

QQLAAEPVPTGFFNMWGFGRVSKQ [WDR41]: the protein stability index is, setting by setting: (treatment: DMSO) 3.56 ± 0.35; (treatment: MLN4924 1 uM, 8 h) 3.49 ± 0.25.

Turning to QQLLHHARNGNAEEVRQLLETMAR [OSBPL1A], the protein stability index is, setting by setting: (treatment: DMSO) 3.15 ± 0.38; (treatment: MLN4924 1 uM, 8 h) 3.78 ± 0.3.

Consider QQVKCIITEEKVCMVCKKKIGNSA [VPS39], for which the protein stability index is, setting by setting: (treatment: DMSO) 3.24 ± 0.4; (treatment: MLN4924 1 uM, 8 h) 3.6 ± 0.66.

QRPVSRQVTCLRTQVLEDSEDSFC [TRAF3IP2]: the protein stability index is 4.68 ± 0.19 (treatment: DMSO) and 4.53 ± 0.14 (treatment: MLN4924 1 uM, 8 h).

Turning to QRVGFGDDFDEDELMAELEELEQE [CHMP4C], the protein stability index runs as follows: (treatment: DMSO) 5.33 ± 0.4; (treatment: MLN4924 1 uM, 8 h) 5.35 ± 0.23.

For QSLDEPGGATFLLTAKQLIKSIVE [TRIM63], the protein stability index came to 2.6 ± 0.33 (treatment: DMSO) and 2.32 ± 0.37 (treatment: MLN4924 1 uM, 8 h).

With QSLPCTERKPAATARLSRRGTSLS [KISS1], the protein stability index is 4.71 ± 0.2 (treatment: DMSO) and 4.66 ± 0.32 (treatment: MLN4924 1 uM, 8 h).

On to QVHRQGERRRELVRSQTLPRTSEA [SMTNL2], for which the protein stability index reads like this: (treatment: DMSO) 4.957 ± 0.024; (treatment: MLN4924 1 uM, 8 h) 4.98 ± 0.16.

As for QVYLSHTAWTEACQVEVRLLLAYN [INTS4], the protein stability index (treatment: DMSO) is 3.15 ± 0.51 and the protein stability index (treatment: MLN4924 1 uM, 8 h) was determined as 3.09 ± 0.19.

Consider RADPLVCATGLLGSAPFLFLSLAC [SPNS1], for which the protein stability index (treatment: DMSO) worked out at 3.37 ± 0.32 and the protein stability index (treatment: MLN4924 1 uM, 8 h) was 3.04 ± 0.22.

In the case of RAHPPQRPASSGGAHTLVNHGYAE [KCNA3], the protein stability index is, setting by setting: (treatment: DMSO) 4.12 ± 0.13; (treatment: MLN4924 1 uM, 8 h) 3.94 ± 0.3.

RAVLKYLYTGELDENERDLMHIAH [RHOBTB2]: the protein stability index by setting is: (treatment: DMSO) 2.34 ± 0.13; (treatment: MLN4924 1 uM, 8 h) 2.49 ± 0.27.

Regarding RAYGFRGPGPQLRRGWRPSSREDS [CHGA], the protein stability index is 3.9 ± 0.4 (treatment: DMSO) and 4.07 ± 0.47 (treatment: MLN4924 1 uM, 8 h).

As to RDKAEELLQLPDTKVGSFMIRESE [SLA], the protein stability index runs as follows: (treatment: DMSO) 4.66 ± 0.37; (treatment: MLN4924 1 uM, 8 h) 4 ± 0.79.

Turning to RDLKLCRFVFADRERKKLVLENLE [TRIB3], the protein stability index runs as follows: (treatment: DMSO) 2.36 ± 0.23; (treatment: MLN4924 1 uM, 8 h) 2.51 ± 0.25.

Consider REQILRVKDTDDVPMILVGNKCDL [RAP1B], for which the protein stability index came out at 3.95 ± 0.28 (treatment: DMSO) and 3.98 ± 0.14 (treatment: MLN4924 1 uM, 8 h).

As to REVKVLLDQLRFPNGVQLSPAEDF [APMAP], the protein stability index reads like this: (treatment: DMSO) 2.97 ± 0.4; (treatment: MLN4924 1 uM, 8 h) 2.95 ± 0.5.

As to RFTRTPVDQTGVSGGVASFICQAT [PTPRD], the protein stability index reads like this: (treatment: DMSO) 3.12 ± 0.28; (treatment: MLN4924 1 uM, 8 h) 3.19 ± 0.37.

Take RFYRSPEVLLGTPYDLAIDMWSLG [DYRK1B]: the protein stability index (treatment: DMSO) stood at 1.78 ± 0.42 and the protein stability index (treatment: MLN4924 1 uM, 8 h) came out at 2.29 ± 0.35.

RGDPLGGCQVSPEGYAHLTHLLMG [HDAC6] returned a protein stability index (treatment: DMSO) of 2.35 ± 0.31 and a protein stability index (treatment: MLN4924 1 uM, 8 h) of 2.71 ± 0.47.

On to RGLHEDLQGVPERLLGTAGTEEKK [VTI1B], for which the protein stability index runs as follows: (treatment: DMSO) 5.38 ± 0.07; (treatment: MLN4924 1 uM, 8 h) 5.58 ± 0.26.

On to RGRAREREQLQAEASERFAAGYIQ [HES6], for which the protein stability index stood at 4.58 ± 0.2 (treatment: DMSO) and 4.57 ± 0.1 (treatment: MLN4924 1 uM, 8 h).

On to RGSDLKVLEVTEESIDFDQGELAD [FBXO33], for which the protein stability index was 5.42 ± 0.14 (treatment: DMSO) and 5.519 ± 0.053 (treatment: MLN4924 1 uM, 8 h).

On to RGTHLWEFIRDILIHPELNEGLMK [ELF3], for which the protein stability index came to 2.54 ± 0.59 (treatment: DMSO) and 2.31 ± 0.42 (treatment: MLN4924 1 uM, 8 h).

As to RHDSETEDMLWDDLLHGPECRSSV [PHTF1], the protein stability index turned out to be 4.68 ± 0.24 (treatment: DMSO) and 4.7 ± 0.2 (treatment: MLN4924 1 uM, 8 h).

Turning to RHIFMGYLESETETTEAIDDEGWL [ACSBG2], the protein stability index turned out to be 4.08 ± 0.27 (treatment: DMSO) and 4.13 ± 0.16 (treatment: MLN4924 1 uM, 8 h).

Consider RIADKFTQHNFQEVMESEEFMLLP [KLHL20], for which the protein stability index turned out to be 3.5 ± 0.35 (treatment: DMSO) and 3.54 ± 0.22 (treatment: MLN4924 1 uM, 8 h).

Sequence RIHSGEEPHKCPECGKRFLRSSDL [ZNF449] yielded a protein stability index (treatment: DMSO) of 3.51 ± 0.73 and a protein stability index (treatment: MLN4924 1 uM, 8 h) of 4.09 ± 0.34.

As to RLFTQLKFGVVQTSVEECSQKGCL [CLCN6], the protein stability index reads like this: (treatment: DMSO) 2.29 ± 0.46; (treatment: MLN4924 1 uM, 8 h) 2.61 ± 0.27.
